The text below walks through data of the DeepSol protein solubility set.

The series is described as follows: soluble on expression in E. coli; label from the status in PepcDB or PDB records.
As for “AKRYWNANLDTYHPKNVSQNRALLTIRVFVHNFNPEEGKGLTFVGSPGVGKTHLAVATLKAIYEKKGIRGYFFDTKDLIFRLKHLMDEGKDTKFLKTVLNSPVLVLDDLGSERLSDWQRELISYIITYRYNNLKSTIITTNYSLQREEESSVRISADLASRLGENVVSKIYEMNELLVIKGSDLR”, the “soluble on expression in E. coli” value is reported as “soluble”. Under “MAHHHHHHMGGCVVSLMECKARSNEVPWELSEDVKSYGPLSVAVAGTQTPNSSAVYVNGKQSTLAAQQECGKQFYYGPNQPQRFAKLCQENLDSVALAYRRIEKMEKEQVAGASRPMDVAYFSEQCNLTYRELWHAVTGFSRGLAELGLEKRVNVTIYEETRWEWLASIYGIWMQDMVAATVYANLGEGALFHALRETECKAILCNGKSVPNLLRGVGSGAFPACTLIYLDNLPVAGCAELHGCRVVSWKDVVALGHGAGAHHGAAPPEDNESVALIMYTSGTTGDPKGVMHTHGSIVAGILTMDDWLYSVIKHRPDDVYLSYLPMAHIMEFGVVNILLARRAHVAFGTPRTLTDATARPHGDFTHFRPTLLIGVPRIFDTLKKAVEAKLPPVGTLKRQVFDHAYQSRLAALKEGKDTPFWNEKVFSQPRAALGGRVRAFLSGGGPLSETTQEFVNVVFGCIVNGWGLTETVCIGAIQRLGDLTPSAVGQVLCSEQLKLRDIDEYKHTDTPYPRGEICLRGPFLFKGYYKQPELTREVLDEDGWFHTGDVGSIDCEGRVSIVGRIKALAKNCLGEYIALEVLEAVYSSHPLVLHNCVCVLVDPCKNYICALVLTDESHVMRFAKANGIEGEYPSLLEKKELLEKAAASMAETARAARRRDFEVVRRVSLIDDEWSPEKGQLTAALKLRRGAIAKQYEKQITCLFAE” stands “not soluble”; under “GSHMVTIVRIYLDGVYGIGKSTTGRVMASAASGGSPTLYFPEPMAYWRTLFETDVISGIYDTQNRKQQGNLAVDDAALITAHYQSRFTTPYLILHDHTCTLFGGNSLQRGTQPDLTLVFDRHPVASTVCFPAARYLLGDMSMCALMAMVATLPREPQGGNIVVTTLNVEEHIRRLRTRARIGEQIDITLIATLRNVYFMLVNTCHFLRSGRVWRDGWGELPTSCGAYKHRATQMDAFQERVSPELGDTLFALFKTQELLDDRGVILEVHAWALDALMLKLRNLNVFSADLSGTPRQCAAVVESLLPLMSSTLSDFDSASALERAARTFNAEMGV”, “soluble”; under “MGSDKIHHHHHHSKNSLPILDSFLFNLEGNTLTVTASDAETRLVTSVDVMNAQGAGLFAVSAKILLDPLKELPEQPLTFDINDENLEIFIHFQNGKYNFIGQKGDTYPQQKPLNDNAISISMDAQMLLNGISRSLFATADDELRPVMNGVYFDIHTDDLTFVASDGHKLVRLRNLAVKSPERASFILPKKPANLLKNLLAKESEQVLIKFDDNNAYITCTNFEMVCRLIEGRYPNYNSVIPQENPFKVTIDRISFLNALKRVSVFSNPASSLVKLHLKDSLITVSAQDIDFSTSAEERIVCQFDGTELSIGFKATYLIEILGNISSEEVVLELADPSRAGLIVPSENDEDEDLLMLLMPMMLND”, “not soluble”. The entry for “MGSDKIHHHHHHMLNMNFDEQVFINTQEQPWVASPKAGVWRKPLAREDAERGHATSLVKFDPGASFTEHDHPLGEEILVLSGTFSDHTGDYHAGSYFRNPEGFRHAPFSKDGCILLVKLHQFQSGDNEHVVIDTANKSWSPGMGNLMVMPLHSFEGESTALVKWPKDERFQPHKHFGGEEIFVISGEFIDEHGRYPEGSWIRSPHLSEHFPYVEQETIILVKVGHL” is “not soluble”. The entry for “MGEETINSTQNKTRTKTTRPKAVYLWTVSDVLKWYRRHCGEYTQYEQLFAQHDITGRALLRITDSSLQRMGVTDNRDREAIWREIVKQRLKTDIMEIRDMERLNIY” is “soluble”; for “MWWREKLFDGLRALELTKKTLKNKKERESMNQEELDKKLKKQEILVKDEKVWSYTYEDHISSIVKEAEKKGSFDHLPGKGKPLNLDKDLSYNPEKQLYRTLKNNHVLPRWIELSKEIDDLKEKLKENTNTAETADLIRTINKKVLEHNLLCPPSAQKTRVKTDFLEHHHHHH” it is “soluble”; for “MEWKTVVKPHTERINVKRSEFYATIFPVKDEKDFREKLKEVSKRDATHNCWAYRIFSPNGILEHSSDDGEPSGTAGRPILGALKKYDLMNTAIVVTRYFGGVKLGVRGLIEAYSSAAEMAVKGAELRKLRLMKEFEVEVDYQELNNVFRVVEMMGLELVEMDYTERGAKILLRGLEVPENLVIKTIRDVLI” it is “soluble”. As for “MPMFNTLTSLFKQLLEGQDLAQHSATPELAIACLLSEVAGADQQISAPEQQAKLALLQHLLQCTAEQASDLLMRAEQEVKQSASLYDFTSQLRSLSQTQRFELIKAMWEVANADGTIDPLEDAVIRKAAELLYVDHSQFIRAKLMAADKHQSPE”, the “soluble on expression in E. coli” value was “not soluble”. The entry for “MSLFTGENWDPYEWAKVFKKSGAKFVVLVAEHHDGFALWESNYTRWCATKIGPKRDIVRELKEAVEGQGLIFGISYHRAEHWWFFDQGMKIESDVKDPRYLDLYGPAQSASLNPRDPPSLDNVQPNDEFLMDWLLRIVEAVEKYRPWLVYFDWWIANPSFQPYLKAFASYYYNRSYKWGIEPVIIYKQGAFGEGTAIPDLAERGTIKNVYPSTWLADTSIDYKSWGYIKDAEYKLPSVILSHLGDVVSKNGVFLLNIGPKADGTIPEEAKRILLDVGDWLNVNGEAIFGSKPWRVYGEGPSGINEGGFFTERKITLGYQDVRYTVKDYYPRQRHIYAILFGKPKEITLRSFMKNLKLIEEAVIVDVSRLDGKGKLEWSLSDEGLKIKIEEVIRAPLVIRVILDYREGHHHHHH” is “not soluble”; for “MCMSLRESAAAADAGAGPLAGSARDLLAQWNGGEDVWVFAYGSLIWRPDFAWQERRLATVRGYHRSLLWSHDHRGSPDNPGLVFGLDRGGCCRGVAFRVAGRDVPEVFQALWHREMSGGAYKPRWLRCHTGQAPVRGLAFVPDRRCRHYAGALSDELLIRAVRQAVGRSGACLDYVRETHRALNEHGIVDWRLGALVDRLAQPLEHHHHHH” it is “not soluble”; for “MKRRCVFMRLSLLDYVPLFEGRTPNDALKHSIKLAQHAEKLGYLRYWVAEHHQVYSVVSSAPEIIMMSILEHTQHIRVGSGGVMLPHYSPYKVAEQFKIMEARHPQRIDMAIGRSPSFKNVNAALNENKNEKLPFNTQITDLLKYFNNDTTQDHRFKSLLATPMVTSFPQLYILGMSNRSAKLAAQRGLPFVIARMGQSETDLHEAISTYRKYFKAYHGEINNAKPYVILATFVVTASNLSRVKQLLHTLQLWLMRINYLNQPKSYPSIETAQNKHYSQRELEKLEKMKSKIIYGMPNDVAEQLTLLHQQFKVDEIIILPHVFGEDARMELIELIANELIPSCSRDEF” it is “not soluble”. For “MSCHTSCIDHTSALIHCADEVFEKPLPHLFEAAVFLMGFTLWGKLEFNQRDGFLDCPHGDRVCGSGMMSKVDILQLTGHFFTNFNGRDYIENIQNLFDNQLASYHIRNQFLIGIQRLGHRKLLIAF”, the “soluble on expression in E. coli” value is “not soluble”.

For the sequence “MGSDKIHHHHHHMLKNSAKNFVENIEKKLYLSIKEKTDSITFKLEKVLKAFSDSHLNVQHFASLTGYGHGDLGRDIIDKIFANVLDAEKAAVRLQLVSGTHAITSSLFGVLRPGDGLLSVTGRPYESLEEVIGLRGNGKGSLIEFGIAYEEISLKDDGNIDFLALEKALKIPRKLIFIQRSCGYTWRPSLSIEVIKEICYLCHKIQPNCICFVDNCYGEFVETNEPTSVGADLIAGSLIKNLGGTIVPTGGYIAGKADLVDKACCRLTAPGIGSEGGITFDLNRTILQGLFLAPQMVSEALIGAEIISTSFSELGFKVLPTPASKRTDLIQIVRIGDPKILQIICRSFQEKSPIGSFLDPIPAPMPGYENNLVMAGGTFVDGSTSEFSADAPMKPPFDLFIQGGSHRAHVKIALIHALSNLFQAGLIKLPQND”, the “soluble on expression in E. coli” value is “not soluble”. Under “MSLKRFYSLFALPLITAATWANEPLPDRQTELPAVKKENHGEYLQPRDLSKIPNTAFGDQVKRGYSLFVNSQQMRGKYVGNEQNCVNCHMEAGRKANAAPLWAAYMAYPAYRKKNDRVNSYADRIQGCFEYSMNGKAPAYDSPEIVALSAYAYWLAMGGLLDSYGMNDEAVPELDIKALQVGGKAQDFPLPDAIAQALPVKERGNLAGRGYPKIAAPKQEPSPERGALVYEKNCETCHRADGSGIKGTDGHSYIPPLWGEFAYNWGAGMHRINTAAYFIYENMPLGKSVQLTEQEAWDVAAYINSHERPQDPRFKGNVTANAEKYHQHQGYYGKTLNGKQIGKNAFASGTEGHHHHHH” stands “not soluble”.
